Biological target: T1, gp32 (gene 32 protein, ssDNA-binding protein) (bacteriophage T4, UniProt P03695 1-301)
T1 sequence: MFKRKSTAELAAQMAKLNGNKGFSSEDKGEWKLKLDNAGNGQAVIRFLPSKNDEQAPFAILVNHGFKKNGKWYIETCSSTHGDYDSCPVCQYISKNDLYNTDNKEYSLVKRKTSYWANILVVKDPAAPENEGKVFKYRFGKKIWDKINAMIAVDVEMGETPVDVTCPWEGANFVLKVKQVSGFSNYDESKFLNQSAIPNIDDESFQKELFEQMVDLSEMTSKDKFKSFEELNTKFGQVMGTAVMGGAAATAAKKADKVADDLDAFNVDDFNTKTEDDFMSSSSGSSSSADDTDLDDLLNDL
Experiment: fluorescence titration

Binder | Kd [µM]
AAAAAAAA (ssDNA, 2-aminopurine at positions 6,7 (written as A)) [8A6,7] | 3.2 ± 0.3
TAATTTTT (ssDNA, 2-aminopurine at positions 2,3 (written as A)) [8P2,3] | 3.5 ± 0.4
TTTTTAAT (ssDNA, 2-aminopurine at positions 6,7 (written as A)) [8P6,7] | 10.3 ± 1
TTTAATTT (ssDNA, 2-aminopurine at positions 4,5 (written as A)) [8P4,5] | 4.2 ± 0.4
AAAAAAAA (ssDNA, 2-aminopurine at positions 2,3 (written as A)) [8A2,3] | 4.1 ± 0.4
